The data set concerns the molecule itself. Briefly: SEC. In general terms: SEC sorts molecules by how far they enter the pores of the column.

B1: Lipo-YcjN (recombinantly overexpressed lipidated YcjN, heterogeneously diacylated at cysteine 21) (natural protein, E. coli K-12, UniProt P76042 21-430, looked up)
chain: CKEENKTNVSIEFMHSSVEQERQAVISKLIARFEKENPGITVKQVPVEEDAYNTKVITLSRSGSLPEVIETSHDYAKVMDKEQLIDRKAVATVISNVGEGAFYDGVLRIVRTEDGSAWTGVPVSAWIGGIWYRKDVLAKAGLEEPKNWQQLLDVAQKLNDPANKKYGIALPTAESVLTEQSFSQFALSNQANVFNAEGKITLDTPEMMQALTYYRDLTANTMPGSNDIMEVKDAFMNGTAPMAIYSTYILPAVIKEGDPKNVGFVVPTEKNSAVYGMLTSLTITAGQKTEETEAAEKFVTFMEQADNIADWVMMSPGAALPVNKAVVTTATWKDNDVIKALGELPNQLIGELPNIQVFGAVGDKNFTRMGDVTGSGVVSSMVHNVTVGKADLSTTLQASQKKLDELIEQH
modifications: cysteine 21 diacylated, acyl chain compositions [16:0, 16:0] and [16:0, 18:1]
As to B1, the binding result is listed as “binds”.

The record behind these values is publication PMC11398462 (bioRxiv, 2024).
